Laboratory results reported in patent US20110059092A1 (INNOGENETICS, published 2011).
Ends that are not written are not given here. * marks the point of attachment. Biotin = O=C1N[C@H]2[C@H](CS[C@H]2CCCCC(=O)*)N1

How the values were obtained:
Aβ8-15-bio [1] = target: T1, Aβ8-15-bio (not fully specified (C-terminus); printed as S8GYEVHHQ15GK-biotin); experiment: Luminex: biotinylated peptide on avidin beads, anti-mouse phycoerythrin detection
T1 construct: Synthetic biotinylated peptide with a free N-terminus at Ser8 of Aβ; also called IGP-2258; Aβ8-15 peptide
T1 peptide: SGYEVHHQGK(Biotin)
Source text: (§1) To determine the specificity of the antibody a peptide was used which is shifted two amino-acids N-terminal as compared to the Aβ₈₋₁₅, the Aβ₆₋₁₃ peptide. The biotinylated versions of these peptides are used in order to capture it efficiently to avidin Luminex beads. […] The results presented in Table 3 are raw data expressed as Mean Fluorescence Intensity (MFI).

Aβ6-13-bio = target: T2, Aβ6-13-bio (not fully specified (C-terminus); printed as H6DSGYEVH13GK-biotin); experiment: as above
T2 construct: Synthetic biotinylated peptide, shifted two amino acids N-terminal compared with Aβ8-15; also called Aβ6-13 peptide
T2 peptide: HDSGYEVHGK(Biotin)
Source text: as §1

Aβ8-15-bio [2] = target: T1, Aβ8-15-bio; experiment: bridging assay: BSA-coupled Aβ8-15 peptide (PG127) captures one binding site, biotinylated peptide detects
Method: Spleen of both mice were prepared and fused to SP2/0 cells. After plating, 66 plates (±3000 clones) were screened. […] In the bridging assay, BSA coupled peptide IGP-128, PG127 (see Table 3) was used to capture one binding site of the antibody and a biotinylated peptide was used to detect the captured antibody in a so-called bridging assay. This assay gives an indication on the affinity of the antibody: a high-affinity antibody will give a higher signal than a lower affinity antibody. Indeed ‘two classes’ of antibodies have been identified.

B1: TeiA 1.7 (antibody, IgG1, V domains shown)
VH: GGLVQPGGSLRLSCATSGFTFSDFYMEWVRQPPGRRLEWIAASRDKAKDYTTEYSASVKGRFIVSRDTSQSIFYLQMNALRSEDTAIYYCATYFSYAMDYWGLGTSVTVSS
VL: SSLTVTAGEKVTMNCKSSQNLLNSGNQVNYLTWFQQKPGQPPKLLIYWASTRESGVPDRFIGSGSGTDFTLTINSVQAEDLAVYYCQNDYRYPLTFGAG
notes: Mouse monoclonal, IgG1; The printed variable regions seem N-terminally incomplete (primer region missing); also called 2.8.A3; 2.8.A3.F8
Luminex assay (MFI) (Aβ8-15-bio [1]): 1720 MFI | Luminex assay (MFI) (Aβ6-13-bio): 5 MFI | Bridging assay (OD450) (Aβ8-15-bio [2]): 0.222 OD450

B2: TeiA 2b.6 (antibody, IgG2b, V domains shown)
VH: GGLVQPGGSLRLSCATSGFTFTDFYMEWVRQPPGKRLEWIAASRNKANGYTTEYSASVKGRFIVSRDTSQGILYLQMSALRAEDTAIYYCAIYRYYAMDYWGQGTSVTVSS
VL: SSLTVTAGEKVTMSCKSSQSLFNSGRQTNYLTWFQQRPGQAPKLLIYWASTRGSGVPDRFTGSGSGTEFTLTISSVQAEDLAVYYCQNDYTYPLTFGAG
notes: Mouse monoclonal, IgG2b; also called 2.13.E5; 2.13.E5.E4
Luminex assay (MFI) (Aβ8-15-bio [1]): 1690 MFI | Luminex assay (MFI) (Aβ6-13-bio): 51 MFI | Bridging assay (OD450) (Aβ8-15-bio [2]): 4 OD450

B3: TeiA 1.1 (antibody, IgG1, V domains shown)
VH: GGLVQPGGSLRLSCATSGFTFSDFFIEWVRQPPGKRLEWITASRNKNYDYKTEYSASVKGRFIVSRDTSQSILYLQMNALRAEDTAIYYCAIYRHYAMDYWGQGTSVTVSS
VL: SSLTVTAGEKVTMSCTSSQSLFNSGTQTNYLTWYQQKPGQPPKLLIYWASTRESGVPDRFTGSGSGTDFTLTISSVQAEDLAVYYCQNDYTYPLTFGAG
notes: Mouse monoclonal, IgG1; The printed variable regions seem N-terminally incomplete (primer region missing); also called 3.46.B10; 3.46.B10.E7
Luminex assay (MFI) (Aβ8-15-bio [1]): 1820 MFI | Luminex assay (MFI) (Aβ6-13-bio): 24 MFI | Bridging assay (OD450) (Aβ8-15-bio [2]): 3.76 OD450
